Experimental data from patent US8663642B2, “Anti-CD70 antibody-drug conjugates and their use for the treatment and prevention of cancer and immune disorders” (priority 2003, dated 2014).

How the values were obtained:
CD70^− Jurkat cells = test: 3H-TdR proliferation assay, hematologic lines; type: cell-based, human; settings: at concentrations as high as 2 μg/ml
Method: (§1) FIG. 5: Effects of anti-CD70 ADCs on the proliferation of transformed hematologic cell lines. A subset of the CD70^+ cell lines shown in FIG. 4 and the CD70^− Jurkat cell line were tested for their sensitivity toward 1F6 ADCs. Graded doses of the 1F6-vcMMAE, 1F6-vcAFP, or the corresponding non-binding control IgG (IgG) ADCs were added to cells at the initiation of culture. Cells were exposed to the ADCs continuously for a total of 96 hours. Proliferation was determined by pulsing with ^3H-TdR during the last 16 hours of incubation. The upper panels show the response of the WSU-NHL and Jurkat lines. The lower panel summaries the responses by the tested cell lines to 1F6-vcMMAE and 1F6-vcAFP in form of IC50s.
(§2) A subset of the CD70^+ hematologic lines listed in FIG. 4 was tested for sensitivity to the 1F6 ADCs. These lines were seeded at 5,000 cells per well in 96-well plates in quadruplicates in a total of 200 μl of culture medium containing graded doses of the ADCs as indicated in the FIG. 5 and the accompanying figure legend. Proliferation assays were carried out for 96 hours. Tritiated thymidine (^3H-TdR) incorporation during the last 16 hours of incubation was used to assess DNA synthesis. The responses of a CD70^+ B lymphoma cell line WSU-NHL and the CD70^− Jurkat cells are shown in the upper panels of FIG. 5. […] Proliferation inhibitory effects were apparent when the ADCs were used at concentrations higher than 0.005 μg/ml. […] On the other hand, proliferation of the CD70^− Jurkat acute T leukemia cell line was not affected by either 1F6-vcMMAE or 1F6-vcAFP at concentrations as high as 2 μg/ml. […] The responses of other CD70^+ cell lines tested are summarized in the lower panel of FIG. 5. […] Moreover, EBV-LCLs are phenotypically very similar to activated normal B cells.

WSU-NHL cells = test: 3H-TdR proliferation assay, hematologic lines; type: cell-based, human; settings: 96 hours, 3H-TdR last 16 hours
Method: as §1, §2

[1] = test system: CD70^+ hematologic cell lines; test: 3H-TdR proliferation assay, panel of CD70^+ hematologic lines; type: cell-based, human; settings: all the responsive cell lines tested
Method: as §1
A subset of the CD70^+ hematologic lines listed in FIG. 4 was tested for sensitivity to the 1F6 ADCs. These lines were seeded at 5,000 cells per well in 96-well plates in quadruplicates in a total of 200 μl of culture medium containing graded doses of the ADCs as indicated in the FIG. 5 and the accompanying figure legend. Proliferation assays were carried out for 96 hours. Tritiated thymidine (^3H-TdR) incorporation during the last 16 hours of incubation was used to assess DNA synthesis. The responses of a CD70^+ B lymphoma cell line WSU-NHL and the CD70^− Jurkat cells are shown in the upper panels of FIG. 5. […]

786-O cells [2] = test: 3H-TdR proliferation assay, RCC lines; type: cell-based, human; settings: 3H-TdR incorporation, 96 hours
786-O cells [3] = test: alamarBlue reduction cell viability (cytotoxicity) assay; settings: 96 hours
Method: (§3) 786-O or Caki-1 cells were incubated with graded doses of 1F6-vcAFP or the non-binding control IgG-vcAFP. Cells were incubated for a total of 96 hours. ^3H-thymidine incorporation (upper panel) and reduction of alamarBlue (lower panel) were used to determine proliferation and cell viability, respectively. Data points are expressed as percentages of the untreated control. Error bars represent the standard deviations of values obtained from quadruplicate wells.
(§4) To examine the responses of CD70^+ RCC lines to 1F6 ADCs, cells were seeded between 1,000 to 3,000 cells per well in 100 μl of medium. An additional 100 μl of culture medium containing graded doses of ADCs were added to the wells after cells were allowed to attached overnight. In addition to DNA synthesis, cell viability, as a reflection of the cytotoxic activities of ADCs, was also assayed by the reduction of alamarBlue™ (Biosource International, Camarillo, Calif.). The alamarBlue™ dye was added at a one to four dilution during the last 4 to 24 hours of the incubation. Dye reduction was assessed by fluorescence spectrometry using the excitation and emission wavelengths of 535 nm and 590 nm, respectively. For analysis, the amount of ^3H-TdR incorporated or the extent of alamarBlue™ reduction by the treated cells was compared to that of the untreated control cells.

Caki-1 cells = test: as above; settings: Caki-1, alamarBlue reduction, 96 hours
Method: as §3, §4

CD70^+ RCC lines = settings: in 4 of the 7 CD70^+ RCC lines tested
Method: as §4

CD70^− Hs 835.T cells = test: 3H-TdR proliferation assay, CD70-negative RCC line; type: cell-based, human; settings: CD70^− Hs 835.T, compared with CD70^+ RCC lines
Caki-1 tumors = test: Caki-1 subcutaneous xenograft model of RCC; type: in vivo, nude mice; design: average tumor size: dose or concentration left out as unconfirmed
From the text: Tumors were initiated in nude mice by implanting tissue tumor blocks (30 mm^3 in size) containing Caki-1 cells. Treatment began when average tumor size within a treatment group was around 100 mm^3. In the upper panel, treatment for the IgG and 1F6 groups began 17 days post implantation (filled arrow), while treatment for the 1F6-vcAFP and IgG-vcAFP groups began 25 days post implantation (open arrow). Indicated doses of either unconjugated mAbs or their ADCs were given for one course on a q4d×4 schedule.
Using xenografts of the Caki-1 line in nude mice, the […] antitumor activity of 1F6-vcAFP was tested. To establish Caki-1 tumors, nude mice were injected subcutaneously with 5×10^6 Caki-1 cells in 0.2 ml PBS. […] Caki-1-containing tumors were excised from tumor bearing mice and tumor tissue blocks of approximately 30 mm^3 were prepared. Naive nude mice to be used for evaluating in vivo antitumor activity of anti-CD70 ADC were each implanted subcutaneously with one tumor block of 30 mm^3. […] Treatment was initiated when the average tumor size within a group was approximately 100 mm^3 (FIG. 12, arrows).

activated T cell clones = test: Proliferation of activated T cell clones (3H-TdR); type: cell-based, human
[4] = test system: PBMCs stimulated with irradiated allogeneic CESS cells; test: Mixed lymphocyte reaction (3H-TdR); type: cell-based, human; settings: MLR

B1: 1F6-vcAFP: anti-CD70 mAb 1F6 linked to auristatin phenylalanine phenylenediamine by the valine-citrulline (vc) dipeptide linker (conjugate)
VH: QIQLVQSGPEVKKPGETVKISCKASGYTFTNYGMNWVKQAPGKGLKWMGWINTYTGEPTYADAFKGRFAFSLETSASTAYLQINNLKNEDTATYFCARDYGDYGMDYWGQGTSVTVSS
VL: DIVLTQSPASLAVSLGQRATISCRASKSVSTSGYSFMHWYQQKPGQPPKLLIYLASNLESGVPARFSGSGSGTDFTLNIHPVEEEDAATYYCQHSREVPWTFGGGTKLEIKR
modifications: non-natural residues
notes: anti-CD70 mAb 1F6 linked to auristatin phenylalanine phenylenediamine by the valine-citrulline (vc) dipeptide linker
effect on proliferation of Jurkat cells (CD70^− Jurkat cells): not affected
effect on the proliferation of WSU-NHL cells (WSU-NHL cells): dose-dependent inhibitory effects
relative inhibitory activity [1]: more potent inhibitory activity than 1F6-vcMMAE
concentration at which maximal proliferation inhibitory effects were achieved (786-O cells [2]): lower than 0.1 μg/ml
concentration at which maximal cytotoxic effects were achieved (786-O cells [3]): lower than 0.1 μg/ml
concentration at which maximal cytotoxic effects were achieved (Caki-1 cells): lower than 0.1 μg/ml
IC50 values to induce cytotoxicity (CD70^+ RCC lines): lower than 20 ng/ml
IC50 values for proliferation inhibition (CD70^− Hs 835.T cells): Substantially higher IC50 values
average tumor size (Caki-1 tumors; 1, 56 days after treatment initiation): < 600 mm^3
average tumor size (Caki-1 tumors; 3, 70 days after treatment initiation): under 200 mm^3
therapeutic activity / tumor growth (Caki-1 tumors; Caki-1 xenograft, q4d×4): significantly inhibited tumor growth
relative activity (activated T cell clones; T cell clones): more active than 1F6-vcVMMAE
IC50, proliferation (activated T cell clones; all 3 clones): below 0.05 μg/ml
relative activity [4]: more active than 1F6-vcMMAE
IC50, T cell proliferation ([4]; 5-day culture): approximately 0.1 μg/ml
effect on T cell proliferation ([4]; 5-day culture): substantially inhibited T cell proliferation
